Patent publication US20240116985A1 (published 2024)
Starred links: 1 amine or outer side, 2 acyl side, 3 side chain; linkers in the order of their positions; H or OH if unused. Positions of bridges follow the written chain, without caps; N, C: chain ends. Non-standard residues stand in square brackets, D forms with d. Primed or numbered codes have the meaning given here. No end group written: not given here. *: point of attachment. PyrS2(3) = (S)-3-amino-1-((pent-4-en-1-yloxy)carbonyl)pyrrolidine-3-carboxylic acid, stapling residue, C=CCCCOC(=O)N1CC[C@@](N[*:1])(C(=O)[*:2])C1; PyrS2″ = (S)-3-amino-1-((pent-4-en-1-yloxy)carbonyl)pyrrolidine-3-carboxylic acid (stapling residue), C=CCCCOC(=O)N1CC[C@@](N[*:1])(C(=O)[*:2])C1; B5(4) = 2,2-bis(4-pentenyl)glycine = 2-amino-2-(pent-4-en-1-yl)hept-6-enoic acid (stitching residue), C=CCCCC(CCCC=C)(N[*:1])C(=O)[*:2]; B5(5) = 2,2-bis(4-pentenyl)glycine, 2-amino-2-(pent-4-en-1-yl)hept-6-enoic acid (stitching residue), C=CCCCC(CCCC=C)(N[*:1])C(=O)[*:2]; TfeGA = (S)-2-amino-3-((carboxymethyl)(2,2,2-trifluoroethyl)amino)propanoic acid, O=C([C@H](CN(CC(=O)[*:3])CC(F)(F)F)N[*:1])[*:2]; PyrS2 = (S)-3-amino-1-((pent-4-en-1-yloxy)carbonyl)pyrrolidine-3-carboxylic acid, C=CCCCOC(=O)N1CC[C@@](N[*:1])(C(=O)[*:2])C1; PyrS3 = (S)-3-amino-1-((hex-5-en-1-yloxy)carbonyl)pyrrolidine-3-carboxylic acid, C=CCCCCOC(=O)N1CC[C@@](N[*:1])(C(=O)[*:2])C1; B5(13) = 2-amino-2-(pent-4-en-1-yl)hept-6-enoic acid (two alkene chains), C=CCCCC(CCCC=C)(N[*:1])C(=O)[*:2]; B5(3) = 2,2-bis(4-pentenyl)glycine (stitching residue), C=CCCCC(CCCC=C)(N[*:1])C(=O)[*:2]; B5″ = 2,2-bis(4-pentenyl)glycine, stitching residue, C=CCCCC(CCCC=C)(N[*:1])C(=O)[*:2]; mPEG2 = N-terminal 3-(2-methoxyethoxy)propanoic acid, COCCOCCC(=O)*; Phe(2-CF3) = N[C@@H](Cc1ccccc1C(F)(F)F)C(=O)O; Phe(2-CONH2) = NC(=O)c1ccccc1C[C@H](N)C(=O)O; Phe(2-Br) = N[C@@H](Cc1ccccc1Br)C(=O)O; Phe(2-Cl) = N[C@@H](Cc1ccccc1Cl)C(=O)O; Phe(2-OMe) = COc1ccccc1C[C@H](N)C(=O)O; 1Nal = N[C@@H](Cc1cccc2ccccc12)C(=O)O; 2Nal = N[C@@H](Cc1ccc2ccccc2c1)C(=O)O; Phe(2-F) = N[C@@H](Cc1ccccc1F)C(=O)O; Phe(2-Me) = Cc1ccccc1C[C@H](N)C(=O)O; Bta = N[C@@H](Cc1csc2ccccc12)C(=O)O; Lys(iPr) = CC(C)NCCCC[C@H](N)C(=O)O; αAllylPro = C=CC[C@@]1(C(=O)O)CCCN1; tBuAla = CC(C)(C)C[C@H](N)C(=O)O; 2Thi = N[C@@H](Cc1cccs1)C(=O)O; 3Thi = N[C@@H](Cc1ccsc1)C(=O)O; Cha = N[C@@H](CC1CCCCC1)C(=O)O; Thr(ol) = C[C@@H](O)[C@H](N)CO; hLeu = CC(C)CC[C@H](N)C(=O)O; Alaol = C[C@@H](CO)N*; Ms = CS(=O)(=O)*

T1: B-cat-Halo (UniProt P35222 1-781)
T1 sequence (looked up): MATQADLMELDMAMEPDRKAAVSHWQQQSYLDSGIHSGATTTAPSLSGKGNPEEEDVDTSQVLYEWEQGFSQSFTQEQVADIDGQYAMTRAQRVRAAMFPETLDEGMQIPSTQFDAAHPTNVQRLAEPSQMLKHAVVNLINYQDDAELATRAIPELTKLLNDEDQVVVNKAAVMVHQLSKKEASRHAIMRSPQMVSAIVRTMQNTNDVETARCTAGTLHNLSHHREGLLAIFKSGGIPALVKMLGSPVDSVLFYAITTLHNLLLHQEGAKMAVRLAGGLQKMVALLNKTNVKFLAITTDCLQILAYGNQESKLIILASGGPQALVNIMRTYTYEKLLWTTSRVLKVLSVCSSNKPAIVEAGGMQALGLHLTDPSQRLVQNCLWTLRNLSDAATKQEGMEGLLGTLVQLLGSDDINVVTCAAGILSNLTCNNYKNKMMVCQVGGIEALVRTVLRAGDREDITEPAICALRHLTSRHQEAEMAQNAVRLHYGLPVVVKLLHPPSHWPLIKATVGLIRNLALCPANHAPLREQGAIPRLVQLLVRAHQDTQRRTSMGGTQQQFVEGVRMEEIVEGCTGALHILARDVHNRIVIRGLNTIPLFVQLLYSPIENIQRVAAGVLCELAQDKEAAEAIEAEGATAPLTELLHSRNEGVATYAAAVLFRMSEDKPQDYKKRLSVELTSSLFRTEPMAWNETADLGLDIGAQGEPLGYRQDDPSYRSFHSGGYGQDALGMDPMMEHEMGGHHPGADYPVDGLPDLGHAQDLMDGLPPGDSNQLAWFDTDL

T2: B-cat-Halo (UniProt P35222 1-781)
T2 sequence (looked up): T1 sequence (looked up)

T3: B-cat-Halo (UniProt P35222 1-781)
T3 sequence (looked up): T1 sequence (looked up)

B1: I-1218 (peptide)
peptide: Ms-[αAllylPro]D[tBuAla][B5″]DDAAFN[PyrS2(3)][3Thi][Bta]Q-NH2
modifications: staple 1-4, 4-11; not fully specified; printed as MeSO2-PL3-Asp-Npg-B5-Asp-Asp-Ala-Ala-Phe-Asn-PyrS2-3Thi-BztA-Gln-NH2

biological target: T1, B-cat-Halo; assay: cell-based or functional assay

B1 and Ms-[αAllylPro]D[tBuAla][B5″]D[TfeGA]AAFN[PyrS2(3)][3Thi][Bta]Q-NH2 (staple 1-4, 4-11; not fully specified) [I-1219] cannot be ordered by “NanoBRET Abs IC50” value: > 20 µM for the first, > 20 µM for the second.

Ac-[αAllylPro]N[tBuAla][B5(4)]DDAAFN[PyrS2″][3Thi][Bta]Q-NH2 (staple 1-4, 4-11) [I-1220] and Ac-[αAllylPro]N[tBuAla][B5(4)]DDAAFL[PyrS2″][3Thi][Bta]Q-NH2 (staple 1-4, 4-11) [I-1221] are within 1.5-fold of each other in “NanoBRET Abs IC50” value: 17.3 µM for the first, 23.4 µM for the second.

Ac-[αAllylPro]D[tBuAla][B5(4)]DDAAFL[PyrS2″][Phe(2-Cl)][Bta]Q-NHEt (staple 1-4, 4-11) [I-1248] and Ac-[αAllylPro]D[tBuAla][B5(4)]DDAAFL[PyrS2″][Phe(2-Cl)][Bta][Thr(ol)] (staple 1-4, 4-11) [I-1249] are within 1.5-fold of each other in “NanoBRET Abs IC50” value: 29.7 µM for the first, 25.2 µM for the second.

Ac-[αAllylPro]D[tBuAla][B5(4)]DDAAFL[PyrS2″][Phe(2-Cl)][Bta]-Alaol (staple 1-4, 4-11) [I-1250] and mPEG2-[αAllylPro]D[tBuAla][B5(5)]DDAAFN[PyrS2″][Phe(2-Cl)][Bta][dT]-NH2 (staple 1-4, 4-11) [I-1253] cannot be ordered by “NanoBRET Abs IC50” value: > 20 µM for the first, > 20 µM for the second.

biological target: T2, B-cat-Halo; assay: cell-based or functional assay

Ac-[αAllylPro]D[tBuAla][B5(13)]DDAAFN[PyrS3][3Thi][Bta]H-NH2 (staple 1-4, 4-11) [I-775] and Ac-[αAllylPro]D[tBuAla][B5(13)]DDAAFN[PyrS3][3Thi][Bta]H-NH2 (staple 1-4, 4-11) [I-776] cannot be ordered by “NanoBRET Abs IC50” value: > 20 µM for the first, 45.7 µM for the second.

Compared with Ac-[αAllylPro]D[tBuAla][B5(13)]DDAAFN[PyrS2]F[Bta]H-NH2 (staple 1-4, 4-11) [I-777], Ac-[αAllylPro]D[tBuAla][B5(13)]DDAAFN[PyrS2][2Thi][Bta]Q-NH2 (staple 1-4, 4-11) [I-778] is 1.8-fold lower in “NanoBRET Abs IC50” value: 19.8 µM for the first, 11.2 µM for the second.

Ac-[αAllylPro]D[tBuAla][B5(13)]DDAAFN[PyrS2][2Thi][Bta]H-NH2 (staple 1-4, 4-11) [I-779] and Ac-[αAllylPro]D[tBuAla][B5(13)]DDAAFN[PyrS2][Phe(2-OMe)][Bta]Q-NH2 (staple 1-4, 4-11) [I-780] are within 1.5-fold of each other in “NanoBRET Abs IC50” value: 18.7 µM for the first, 20.7 µM for the second.

First: Ac-[αAllylPro]D[tBuAla][B5(13)]DDAAFN[PyrS2][Phe(2-OMe)][Bta]H-NH2 (staple 1-4, 4-11) [I-781]
Second: Ac-[αAllylPro]D[tBuAla][B5(13)]DDAAFN[PyrS2][Phe(2-Me)][Bta]H-NH2 (staple 1-4, 4-11) [I-782]
The “NanoBRET Abs IC50” value of the first is 2.5-fold higher: 31 µM for the first, 12.2 µM for the second.

Compared with Ac-[αAllylPro]D[tBuAla][B5(13)]DDAAFN[PyrS2][Phe(2-Cl)][Bta]Q-NH2 (staple 1-4, 4-11) [I-783], Ac-[αAllylPro]D[tBuAla][B5(3)]DDAAFN[PyrS2][Phe(2-Cl)][Bta]H-NH2 (staple 1-4, 4-11) [I-784] is 2.3-fold higher in “NanoBRET Abs IC50” value: 6.2 µM for the first, 14.5 µM for the second.

Ac-[αAllylPro]D[tBuAla][B5(3)]DDAAFN[PyrS2][3Thi][Bta]-NH2 (staple 1-4, 4-11) [I-785] and Ac-[αAllylPro]D[tBuAla][B5(3)]DEAAFN[PyrS2][3Thi][Bta]-NH2 (staple 1-4, 4-11) [I-786] are within 1.5-fold of each other in “NanoBRET Abs IC50” value: 21.6 µM for the first, 29.3 µM for the second.

Ac-[αAllylPro]D[hLeu][B5(3)]DDAAFN[PyrS2][3Thi][Bta]Q-NH2 (staple 1-4, 4-11) [I-787] and Ac-[αAllylPro]D[hLeu][B5(3)]DDAAFN[PyrS2][3Thi][Bta]H-NH2 (staple 1-4, 4-11) [I-788] are within 1.5-fold of each other in “NanoBRET Abs IC50” value: 30.7 µM for the first, 21.6 µM for the second.

Ac-[αAllylPro]D[tBuAla][B5(3)]DDAAFN[PyrS2][3Thi][1Nal]H-NH2 (staple 1-4, 4-11) [I-789] and Ac-[αAllylPro]D[tBuAla][B5(3)]DDAAFN[PyrS2][3Thi][2Nal]H-NH2 (staple 1-4, 4-11) [I-790] cannot be ordered by “NanoBRET Abs IC50” value: > 20 µM for the first, > 20 µM for the second.

Ac-[αAllylPro]D[tBuAla][B5(3)]DDAAFN[PyrS2][3Thi]WH-NH2 (staple 1-4, 4-11) [I-792] and Ac-[αAllylPro]D[tBuAla][B5(3)]DDAAFN[PyrS2][Bta][Bta]H-NH2 (staple 1-4, 4-11) [I-793] cannot be ordered by “NanoBRET Abs IC50” value: > 20 µM for the first, > 20 µM for the second.

biological target: T3, B-cat-Halo; assay: cell-based or functional assay

First: Ac-[αAllylPro]D[Cha][B5(4)]DDAAFT[PyrS2″][Phe(2-Cl)][Bta][Thr(ol)] (staple 1-4, 4-11) [I-1312]
Second: Ac-[αAllylPro]D[tBuAla][B5(4)]DD[Lys(iPr)]AFL[PyrS2″][Phe(2-Cl)][Bta][Thr(ol)] (staple 1-4, 4-11) [I-1313]
The “NanoBRET Abs IC50” value of the first is 3.2-fold lower: 16.1 µM for the first, 51.4 µM for the second.

First: Ac-[αAllylPro]D[tBuAla][B5(4)]DDAAFN[PyrS2″][Phe(2-CONH2)][Bta]Q-NH2 (staple 1-4, 4-11) [I-1314]
Second: Ac-[αAllylPro]D[tBuAla][B5(4)]DDAAFL[PyrS2″][2cbmF][Bta]Q-NH2 (staple 1-4, 4-11) [I-1315]
The “NanoBRET Abs IC50” value of the first is higher: > 20 µM for the first, 7.2 µM for the second.

Ac-[αAllylPro]D[tBuAla][B5(4)]DDAAFF[PyrS2″][2cbmF][Bta]Q-NH2 (staple 1-4, 4-11) [I-1316] and Ac-[αAllylPro]D[tBuAla][B5(4)]DDAAFN[PyrS2″][Phe(2-CF3)][Bta]Q-NH2 (staple 1-4, 4-11) [I-1317] are within 1.5-fold of each other in “NanoBRET Abs IC50” value: 6.8 µM for the first, 9.7 µM for the second.

Going from Ac-[αAllylPro]D[tBuAla][B5(4)]DDAAFN[PyrS2″][Phe(2-F)][Bta]Q-NH2 (staple 1-4, 4-11) [I-1320] to Ac-[αAllylPro]D[tBuAla][B5(4)]DDAAFL[PyrS2″][Phe(2-F)][Bta]Q-NH2 (staple 1-4, 4-11) [I-1321], the “NanoBRET Abs IC50” value falls from 26.2 µM to 10.9 µM (2.4-fold).

Ac-[αAllylPro]D[tBuAla][B5(4)]DDAAFF[PyrS2″][Phe(2-F)][Bta]Q-NH2 (staple 1-4, 4-11) [I-1322] and Ac-[αAllylPro]D[tBuAla][B5(4)]DDAAFN[PyrS2″][Phe(2-Br)][Bta]Q-NH2 (staple 1-4, 4-11) [I-1323] are within 1.5-fold of each other in “NanoBRET Abs IC50” value: 9.1 µM for the first, 11.7 µM for the second.

In the case of [αAllylPro]D[tBuAla][B5(4)]DDAAFL[PyrS2″][Phe(2-Br)][Bta]Q-NH2 (staple 1-4, 4-11) [I-1324], the “NanoBRET Abs IC50” value is reported as 5.8 µM.
